The experiment concerns the target T1, Smac peptide AVPIAQKSEKY (Homo sapiens).
T1 chain: AVPIAQKSEKY
The experiment in a line: ITC. (ITC needs no label: the signal is the heat of the interaction.)

B1: WT-XIAP BIR3 241-356 (protein)
chain: SDAVSSDRNFPNSTNLPRNPSMADYEARIFTFGTWIYSVNKEQLARAGFYALGEGDKVKCFHCGGGLTDWKPSEDPWEQHAKWYPGCKYLLEQKGQEYINNIHLTHSLEECLVRTT
What is called Kd is the free concentration of one partner at which half of the binding sites on the other are occupied at equilibrium, for simple one-to-one binding. Read a high Kd as weaker binding. On to B1, for which the Kd was 428 nM.

Values taken from PMC6876990 (2019).
